# The DeepSol protein solubility set
# Experiment: soluble on expression in E. coli; label from the status in PepcDB or PDB records
row,Sequence,soluble on expression in E. coli
1,MTGTYEQPVIDATYHNDDQGGHANQLVLKYVEDRKLSKVFKRICDSFKDYYNQPEDMTDEELDYQRVVSLSKSTQGKVNNRDTLIAFISDHNQLAEHLSMNYKEMTPEDLGAILESISQAFNHLYDMVVEGQLLVK,not soluble
2,MSLKATSSDDKVTFHALNGDVKVPKNPKRIAVQNYPDEVASLGANVVGTDSWAFPNTFLSKDQKKNMVDLGAPKFNMEKLIAQNPDLIITVDKDQVADYQKVAPTVLVNYKDLSGMNKSLDYFAKLLNREDEKASFLKNFKKEADKQKEKLAKVDVKPAKNTISLLELQGDKVYAFGDNFARGGQALTTGLGFKESSKMAELSKGVGYAEVNTESLGEFDADYIFIDFADKDKEQYAALKNNPAWQNLKAVKEGHVITMDYDKVYFFGGPTAAKEELSLYTDAIIKATKEGHHHHHH,soluble
3,MTYCLGIVTQAGLIMAADSRTNAGIDYISTYQKLFDFSLPGDRTIVICCSGNLSITQAVLSQLRRDLAGHFDINLHSLPTMYDLARYLGQKVRQLQESDRDWLKQDGIDFYCNFLLGGQIRGGPIELYLVYGQGNCIHATPETPYLQIGETKYGKPILDRTISFDTSLDMAAKCALMSLDSTMRSNLSVGPPLNLARYERDSLVAPMLVQFPAGHEYLVEMRRRWEISLKDAFMRLPDIDWSRQLMRSLSPVSESVP,not soluble
4,MIKSITIRTSREFEIIDITKEVERVVRESNVKSGIVVVFTRHTTTALTINENESGLKRDIEEILSKLVPKGMNYFHDRIDNNAHSHLRGILLGPSLTIPVEDGRLLLGTWQSILFVELDGPRTREVYVKVCECLEHHHHHH,soluble
5,MMRGSHHHHHTDPISYIIRKADSVNKALDSAVPLREPLKIHEAMRYSLLAGGKRVRPVLCIAACELVGGEESLAMPAACAVEMIHTMSLIHDDVYGEDVAVLAGDALLSFAFEHLASATSSEVSPARVVRAVGELAKAIGTEGLVAGQVVDISNVGLEHLKFIHLHKTAALLEASAVLGGIIGGGSDEEIERLRKFARCIGLLFQVVDDILDVTIADKLTYPKLMGLEKSREFAEKLNTEARDQLLGFDSDKVAPLLALANYIANRQN,soluble
6,MGSDKIHHHHHHMEHGTESFWTDIKRYEDILAKDPGSYCFAPLSELYRKVGLLDDAIMTARTGIGQHPEYVGGYMALGRACFEKGERTESRAALEKVVRVTPDNLLAQKLLSQIYVDAGESDLARRCLEIILSLSPGDLESKLMLDAMCRQPRENADRADDLFNEMGAAAAIDLEDESLLEEIEIIEELVDEVVDEEDLAAFTAHAPPPPLAEESFADVLLDEEPVANADVPSPRDVLSTGTVADLYIAQGFPKKALAIYRDLLDADPLNEDIRNRMVDLKKRIDEDEARARESVLAEAVSATDTTAQIQGDLTADREAFKEEAASGFAVESAHEVDIPLEVAVSAESSLNVAEEKEASAAHVVSALEGWLDSIRRIRQCRSVLH,not soluble
7,MAQSKESPDEAKQDEIIFNIGDTINDYEIVSKIDEGGFGQVFKVTKDHKTFYAMKLESNFQVGGSAIKLEINVLSQLPKNTVFPELICGGKRPRYHFLVLELLGDNLKALKAQSPNPSVFSDGTWSRIGIQCLYAMKMMHDSGFVHRDIKPSNFAIGYSTASESRSRRVLLFDFGLARKFVKKEKNLAPIVTKKESKISKSKTLPSKGPSTKSKDLKPGRSKPILNRKAEQMKIKKNFNMLIPPKSIDQSQRTAEEKVDDEEFTFRRARPHTDFRGTFQYASPNAHLQLELGRHDDIWSLMYMVAEFFVELPWTSNEEIALEELKNQSSILRLFSDGKNIVSSWIHDRIFSDKNPSRLTPEMRGQLDEIDKNLKSCNYYSSPKYDIVYQFFKDSMTKAKVTWTTPYDWETIGKSSEDFSKKSNGKRAVWENPGAFFKKGRWDALPLPLQSPHISIRKSSSKHPKPSAKGSKKAVQARIQNFSKEDSVEADEAPTPMLKSTKKDGMGGQKGGLKGSIE,not soluble
8,HKDFTWNTTLSATWSKEKIDKLPDGDLISENLFTGEPIHAIYGYKYAGIWGSDTPKETLDAYGVNPGFIKIETVDKNGDGGVHKYSTDDRQILGHTNPDWIIGLNNSFTYKNFDLSVFAMARYGQTINSDLLGYYTAEQSVTKNQLAGVDYWTEDNQGAYFPRPGTGDEQKTVYPSLRVHDGSFIKIKNITLGYTLPANISRKVLMEKCRIYATAYNPFIFVKDKQLKDTDPETNGSDAFPTYRQFVFGVNLTF,not soluble
9,MSEEHIAVTRFREYLRVNTEQPNPNYAACRDFLFKYADELGIARRSIETAPGVFLVIMTIPGSQPELPSIMLYSHTDVVPTFREHWTHDPYSAFKDEDGNIFARGAQDMKCVGVQQMEALRNLFAQGIRQWKRTIHLVWGPDEEIFGINGMKGFAKTDEFKKLNLGFSLDEGMPSDDDVYKVFYAERVAWWVKVTFPGNPGHGSQFMENTAMEKLERFLASARKFRNEQKVVLESNPNLTLGDVTTLNVNIVNGGVQFNVIPEKFEAYVDMRLTPHEDFNKIREMLDQWAKNAGEGVTYEFSQYSDQKPISAHTRDNSFWAAFEDSLNQENCKFEKGIMVASTDSRFVRYEGVNSINFSPMINTPFLPHDHNEYLNEKVFLRGLEIYQTIINNLGNV,not soluble
10,MQVKILDTTLRDGEQTPGVSLSVEQKVMIAEALDNLGVDIIEAGTAIASEGDFQAIKEISQRGLNAEICSFARIKREDIDAAADAGAESIFMVAPSSDIHINAKFPGKDRDYVIEKSVEAIEYAKERGLIVEFGAEDASRADLDFVIQLFKRAEEAKADRITFADTVGVLSPEKMEEIVRKIKAKVKLPLAIHCHDDFGLATANTIFGIKAGAEEFHGTINGLGERAGNAAIEEVVIALEYLYGIKTKIKKERLYNTSKLVEKLSRVVVPPNKPIVGDNAFTHESGIHTSALFRDAKSYEPISPEVVGRKRVIVLGKHAGRASVEAIMNELGYKATPEQMKEILARIKEIGDKGKRVTDADVRTIIETVLQIKREKKVKLEDLAIFSGKNVMPMASVKLKIDGQERIEAAVGLGPVDAAINAIRRAIKEFADIKLVSYHVDAITGGTDALVDVVVQLKKDNKIVTARGARTDIIMASVEAFIEGINMLF,not soluble
11,MSDNDIIDDDVLNIEDMTGDDADLSAIEGDLNEIEEEQKKLKAIQNEMVGHMNLNTSSQSNSSQSLLTPEEKAEADAKSVYVGNVDYGATAEEIEQHFHGCGSVSRVTIQCDRFSGHPKGFAYVEFTEKEGMQNALAMTDSLLRGRQIKVDPKRTNKPGMSTTNRPPFRGRGGRGRGNVIVKYVYAGGFRPRGRGARRRPGFAPY,soluble
12,SAALTAEHFVALQSLLKASSKDVVRQLCQESFSSSCLDSESLLDKTCSSLSVPQGEAAQLLQALHHFTRLVAFRDLSSAEAILALFPENFHQNLKNLLTKIIVEHISTWRAEAQANQISLPRLVDLDWRVDIKTSSDNISRMAVPTCLLQMKIQEDPSLCGEKPSISAVTMELSKETLDTMLDGLGRIRDQLSAVANK,soluble
13,MSEANIIHSRYGLRCEKLDKPLNLGWGLDNSAVLHCPGELPTGWLCDALDQIFIAAPQLSAVALPWAEWREEPQALTLFGQVKSDIIHRTAFWQLPLWLSSPANRASGEMVFDAEREIYFPQRPPRPQGEVYRRYDPRIRRMLSFRIADPVSDAERFTRWMNDPRVEYFWEQSGSLEVQTAYLERQLTGKHAFPLIGCFDDRPFSYFEIYWAAEDRIGRHYSWQPFDRGLHLLVGEQQWRGAHYVQSWLRGLTHYLLLDEPRTQRTVLEPRTDNQRLFRHLEPAGYRTIKEFDFPHKRSRMVMADRHHFFTEVGL,not soluble
14,LNNRKQMAQQKFAFYEKSLPNKKRSFFEMKYYNDVTTPKIYRLTDQEMKLFDKLEA,not soluble
15,NCCVKGNSIYPQKTSTKQTGLMLDIARHFYSPEVIKSFIDTISLSGGNFLHLHFSDHENYAIESHLLNQRAENAVQGKDGIYINPYTGKPFLSYRQLDDIKAYAKAKGIELIPELDSPNHMTAIFKLVQKDRGVKYLQGLKSRQVDDEIDITNADSITFMQSLMSEVIDIFGDTSQHFHIGGDEFGYSVESNHEFITYANKLSYFLEKKGLKTRMWNDGLIKNTFEQINPNIEITYWSYDGDTQDKNEAAERRDMRVSLPELLAKGFTVLNYNSYYLYIVPKASPTFSQDAAFAAKDVIKNWDLGVWDGRNTKNRVQNTHEIAGAALSIWGEDAKALKDETIQKNTKSLLEAVIHKTNGDEHHHHHH,soluble
16,MSELVVIREMQEKDILALDTQFVQQGWPSRQEILMNYLEEQLVKQRTVFVAEKKATLLGYVTLLPLAKEGPFKNLYPEIADFNVFLPFQKQGVGRLLLNRAENVAKSYADTVSLGVGLHPGYGAAQRLYIKQGYVPDGSGVWFQNKQLKPNERCVNDDELVLYLSKKL,not soluble
17,ELLPDVRLLYGETPFARTPVMYEPGIIILFSGHKIGYINERVFRYDANEYLLLTVPLPFECETYATSEVPLAGLRLNVDILQLQELLMDIGEDEHFQPSMAASGINSATLSEEILCAAERLLDVMERPLDARILGKQIIREILYYVLTGP,not soluble
18,MRISGVTLFRVSSQLRNVVNGQWTTTHYTVKDRSTDPRWKDVDLARESDVYDVVIVGGGPSGLSAAIRLRQLAEKAQKELRVCVVEKASVIGGHTLSGAVIETRALDELIPNWKELGAPVYQQVTSESIAILTESGRIPVPVLPGVPLANHGNYIVRLGKVVQWLGEQAEAAGVEVWPEIAASEVLYNEDGSVKGIATSDVGIGKDGAPKDGFARGMEFHAKCTIFAEGCRGHLSKQVLDKFDLRTHAMTYGIGLKELWEIDPAKHRPGYVEHTMGWPLNVDQYGGSFLYHIEDQGQPLVSVGFVVALDYANPNLNPYKEFQKYKTHPSISKQLEGGKRIGYGARALNEGGFQSIPKLHFPGGCLVGCSAGFLNVAKLKGTHNAMKSGMVAAESIFEDIQQKGEDVQTIDPATYDKNIRDTYVVKELKATRNIRPSFNTSLGYIGGLIYSGIFYVFGRGIEPWTLGHGKKDNEKLIPVKDAKEIDYPKPDGKLTFDLLTSVSLTGTNHTEDQPAHLTLKNDQVPLDVNLAVYGGPEARFCPAGVYEFVPSEADESKKRLQINAQNCIHCKTCDIKDPQQNINWVTPEGGGGPKYEGM,not soluble
19,SLSSLEGQENSFTINSVDMKSLPDWTVQNGKNLTLQCFADVSTTSHVKPQHQMLFYKDDVLFYNISSMKSTESYFIPEVRIYDSGTYKCTVIVNNKEKTTAEYQLLVEGVPSPRVTLDKKEAIQGGIVRVNCSVPEEKAPIHFTIEKLELNEKMVKLKREKNSRDQNFVILEFPVEEQDRVLSFRCQARIISGIHMQTSESTKSELVTVTESFSTPKFHISPTGMIMEGAQLHIKCTIQVTHLAQEFPEIIIQKDKAIVAHNRHGNKAVYSVMAMVEHSGNYTCKVESSRISKVSSIVVNITELFSKPELESSFTHLDQGERLNLSCSIPGAPPANFTIQKEDTIVSQTQDFTKIASKSDSGTYICTAGIDKVVKKSNTVQIVVCEMLS,soluble
20,GPLGSHMSQAVQTNGTQPLSKTWELSLYELQRTPQEAITDGLEIVVSPRSLHSELMCPICLDMLKNTMTTKECLHRFCADCIITALRSGNKECPTCRKKLVSKRSLRPDPNFDALISKIYPSRDEYEAHQERVLARINKHNNQQALSHSIEEGLKIQAMNRLQRG,soluble
21,MKKTIVFKCGGSVIRELSEEFYQNLKELRASGWKLAIVHGGGPEITNMLKRLNIKTEFSGGQRKTTKPVLEVAEMVLSGSVNKFFVAELAKHGLRAAGISGKDGGLLEADYLDPETYGEVGEIKKVDASMVNALMENGIIPVIAPLSMTSDCKTLNVNADLAASAVAGALEADKLMFVTDVDGIMKEKQRLDVLTPKEIQMLIKQEVITGGMIPKVNSALSALSDQVSEVMIVNGKGSFFAEQTFQGTKIVKAKEAVS,not soluble
22,MAHHHHHHMGGAIYNAVNIAEIVKRRIAGLHQITELGSELVRDEYEPIDRTQNPENVVVERKVSTILITLSRNCLDKSNPGYQEPIADSEVTEQERRDPNMSRRGGRGGIRGGRGGSRGGRGGSRGGRGGSRGGRGVAAIDRRDDREN,not soluble
